The results in this text go back to patent publication US20160347808A1 (IMMATICS BIOTECHNOLOGIES, published 2016).

The target in the assay is T1, HLA-A*02:01 (peptide-receptive MHC class I monomer from UV-ligand exchange) (human).
T1 construct: Monomers were captured on streptavidin-coated plates
Put plainly: UV-exchange ELISA (anti-b2m); exchange yield grade: + >=10%, ++ >=20%, +++ >=50%, ++++ >=75%. The procedure, abridged:
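UV-cleavable peptide in HLA monomers exchanged for test peptide by UV irradiation; exchange yield measured by streptavidin-capture ELISA with HRP anti-β2m (TMB, 450 nm) on 100-fold diluted complexes. Quantified against refolded HLA-A*02:01/MLA-001 standards (15-500 ng/ml).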
Background: In an ELISA, binding on a coated surface is turned into a signal by an enzyme label.
In the case of WIDDTSAFV [peptide WIDDTSAFV (SEQ ID NO 92)], the peptide exchange yield was 50 to 75%. The figure for SLIEYEFRV [peptide SLIEYEFRV (SEQ ID NO 89)] is 50 to 75%; for ILDDHLSRV [peptide ILDDHLSRV (SEQ ID NO 9)] it is 20 to 50%; for FLFGYPKRL [peptide FLFGYPKRL (SEQ ID NO 103)] it is 20 to 50%. The value for AMNGKSFSV [peptide AMNGKSFSV (SEQ ID NO 98)] was 20 to 50%; that for KLLEVDLDTV [peptide KLLEVDLDTV (SEQ ID NO 99)] was 50 to 75%.

For ALWWGVVTV [peptide ALWWGVVTV (SEQ ID NO 97)], the peptide exchange yield was 20 to 50%. The figure for GLLKPGLNVVL [peptide GLLKPGLNVVL (SEQ ID NO 90)] is 50 to 75%.

With SLDDFLATA [peptide SLDDFLATA (SEQ ID NO 100)], the peptide exchange yield lay in the range of 50 to 75%. The figure for SLQELRLLL [peptide SLQELRLLL (SEQ ID NO 93)] is not below 75%; for AILDAHIEV [peptide AILDAHIEV (SEQ ID NO 95)] it is not below 75%. The figure for GLSEGHTFQV [peptide GLSEGHTFQV (SEQ ID NO 101)] is 50 to 75%; for KLYSRLVYV [peptide KLYSRLVYV (SEQ ID NO 96)] it is 20 to 50%. As to KSMDIVLTV [peptide KSMDIVLTV (SEQ ID NO 94)], the peptide exchange yield lay in the range of 50 to 75%.

As for TVDVATPSV [peptide TVDVATPSV (SEQ ID NO 91)], the peptide exchange yield fell in the range of 50 to 75%. The value for KILVSLIEV [peptide KILVSLIEV (SEQ ID NO 102)] was 50 to 75%.
